Measured values taken from PMC3844076 (Nature, 2013).

Molecular target: the molecule itself
Experiment: SEC

B1: EncM (as used for size exclusion chromatography) (enzyme, Streptomyces maritimus, UniProt Q9KHK2 1-464, looked up)
chain: MQFPQLDPATLAAFSAAFRGELIWPSDADYDEARRIWNGTIDRRPALIARCTSTPDVVAAVSFARKSGLLVAVRGGGHSMAGHSVCDGGIVIDLSLMNSIKVSRRLRRARAQGGCLLGAFDTATQAHMLATPAGVVSHTGLGGLVLGGGFGWLSRKYGLSIDNLTSVEIVTADGGVLTASDTENPDLFWAVRGGGGNFGVVTAFEFDLHRVGPVRFASTYYSLDEGPQVIRAWRDHMATAPDELTWALYLRLAPPLPELPADMHGKPVICAMSCWIGDPHEGERQLESILHAGKPHGLTKATLPYRALQAYSFPGAVVPDRIYTKSGYLNELSDEATDTVLEHAADIASPFTQLELLYLGGAVARVPDDATAYPNRQSPFVTNLAAAWMDPTEDARHTAWAREGYRALAGHLSGGYVNFMNPGEADRTREAYGAAKFERLQGVKAKYDPTNLFRLNQNIPPSSP
modifications: FAD covalently linked to His78 via the C8-methyl of the isoalloxazine ring
stoichiometry N: 2
